From patent US20120316071A1 (published 2012) come the findings set out here.

The target in experiment [1] is T1, rHuman Erythropoietin R/Fc Chimera, CF (R&D Systems Cat#963-ER) (human, UniProt P19235 25-250).
T1 construct: Bought Fc chimera; also called Epo R/Fc chimera; EPO R/Fc; Fc part of the bought chimera not given
T1 sequence (looked up): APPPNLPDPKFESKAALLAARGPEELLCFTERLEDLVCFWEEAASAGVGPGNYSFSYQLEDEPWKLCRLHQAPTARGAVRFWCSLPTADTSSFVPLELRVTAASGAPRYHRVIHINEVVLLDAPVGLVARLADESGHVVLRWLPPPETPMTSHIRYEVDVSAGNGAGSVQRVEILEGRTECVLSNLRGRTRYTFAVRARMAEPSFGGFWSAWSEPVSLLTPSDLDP
Nature of the experiment: Multispot ECL (MSD) binding screen, antigen spotted on plate; hit = signal/blank >= 4.

Experiment [2] has as its target T2, rHuman HGF R/c-MET/Fc Chimera, CF (R&D Systems Cat#358-MT/CF) (human, UniProt P08581 25-932).
T2 construct: Bought recombinant protein; also called HGF R/Fc; hepatocyte growth factor receptor; Fc part of the bought chimera not given
Nature of the experiment: ECL multispot (MSD), antigen spotted, 10 nM Fab; blank spot of this row 239.

In experiment [3] the target is T3, rHuman P-Cadherin/Fc Chimera, CF (R&D Systems Cat#861-PC) (human, UniProt P22223 108-654).
T3 construct: Bought recombinant protein; Fc part of the bought chimera not given
Described as above.

The target of experiment [4] is T4, rHuman Erythropoietin R/Fc Chimera, CF (R&D Systems Cat#963-ER) (human, UniProt P19235 25-250).
T4 construct: Bought recombinant protein; also called EPO R; EPO R/Fc; Fc part of the bought chimera not given
T4 sequence (looked up): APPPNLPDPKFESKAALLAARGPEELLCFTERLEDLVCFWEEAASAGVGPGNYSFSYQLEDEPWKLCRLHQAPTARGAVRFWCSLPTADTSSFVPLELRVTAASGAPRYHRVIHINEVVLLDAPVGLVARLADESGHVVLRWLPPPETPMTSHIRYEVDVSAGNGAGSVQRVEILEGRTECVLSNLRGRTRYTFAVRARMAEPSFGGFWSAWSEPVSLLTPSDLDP
The description is as above.

Experiment [5] concerns the target T5, rHuman EGF R/Fc Chimera, CF (R&D Systems Cat#344-ER) (human, UniProt P00533 25-645).
T5 construct: Bought recombinant protein; also called epidermal growth factor receptor; Fc part of the bought chimera not given
The description is as above.

For experiment [6], the target named is T6, rHuman Notch-1/Fc Chimera, CF (R&D Systems Cat#3647-TK) (human, UniProt P46531 19-526).
T6 construct: Bought recombinant protein; Fc part of the bought chimera not given
Described as above.

The target of experiment [7] is T7, rHuman CD44/Fc Chimera, CF (R&D Systems Cat#3660-CD) (human, UniProt P16070 21-220).
T7 construct: Bought recombinant protein; Fc part of the bought chimera not given
The description is as above.

Experiment [8] deals with T8, rHuman ErbB2/Fc Chimera, CF (R&D Systems Cat#1129-ER) (human, UniProt P04626 23-652).
T8 construct: Bought recombinant protein; also called human epidermal growth factor 2 receptor; Fc part of the bought chimera not given
The experiment is described as above.

For experiment [9], the target named is T9, rHuman IGF-1 sR, (IGF-1 sR), CF (R&D Systems Cat#391-GR) (human, UniProt P08069 31-932).
T9 construct: Bought recombinant soluble receptor; also called insulin-like growth factor-1 soluble receptor
The experiment is described as above.

Experiment [10] has as its target T2, rHuman HGF R/c-MET/Fc Chimera, CF (R&D …). Nature of the experiment: ECL multispot (MSD), antigen spotted, 10 nM Fab; blank spot of this row 271.
For experiment [11], the target named is T3, rHuman P-Cadherin/Fc Chimera, CF (R&D …). The description is as above.
In experiment [12] the target is T4, rHuman Erythropoietin R/Fc Chimera, CF …. The description is as above.
The target in experiment [13] is T5, rHuman EGF R/Fc Chimera, CF (R&D …). Described as above.
Experiment [14] deals with T6, rHuman Notch-1/Fc Chimera, CF (R&D …). The experiment is described as above.
Experiment [15] concerns the target T7, rHuman CD44/Fc Chimera, CF (R&D Systems …). The description is as above.
In experiment [16] the target is T8, rHuman ErbB2/Fc Chimera, CF (R&D …). Described as above.
In experiment [17] the target is T9, rHuman IGF-1 sR, (IGF-1 sR), CF (R&D …). The description is as above.
Experiment [18] concerns the target T2, rHuman HGF R/c-MET/Fc Chimera, CF (R&D …). Nature of the experiment: ECL multispot (MSD), antigen spotted, 10 nM Fab; blank spot of this row 204.
Experiment [19] deals with T3, rHuman P-Cadherin/Fc Chimera, CF (R&D …). Described as above.
Experiment [20] deals with T4, rHuman Erythropoietin R/Fc Chimera, CF …. The description is as above.
The target in experiment [21] is T5, rHuman EGF R/Fc Chimera, CF (R&D …). The experiment is described as above.
Experiment [22] concerns the target T6, rHuman Notch-1/Fc Chimera, CF (R&D …). Described as above.
The target of experiment [23] is T7, rHuman CD44/Fc Chimera, CF (R&D Systems …). The experiment is described as above.
The target of experiment [24] is T8, rHuman ErbB2/Fc Chimera, CF (R&D …). Described as above.
In experiment [25] the target is T9, rHuman IGF-1 sR, (IGF-1 sR), CF (R&D …). The experiment is described as above.
Experiment [26] addresses T2, rHuman HGF R/c-MET/Fc Chimera, CF (R&D …). Nature of the experiment: ECL multispot (MSD), antigen spotted, 10 nM Fab; blank spot of this row 248.
The target of experiment [27] is T3, rHuman P-Cadherin/Fc Chimera, CF (R&D …). Described as above.
The target in experiment [28] is T4, rHuman Erythropoietin R/Fc Chimera, CF …. The experiment is described as above.
Experiment [29] deals with T5, rHuman EGF R/Fc Chimera, CF (R&D …). Described as above.
Experiment [30] has as its target T6, rHuman Notch-1/Fc Chimera, CF (R&D …). The experiment is described as above.
In experiment [31] the target is T7, rHuman CD44/Fc Chimera, CF (R&D Systems …). The description is as above.
In experiment [32] the target is T8, rHuman ErbB2/Fc Chimera, CF (R&D …). The description is as above.
In experiment [33] the target is T9, rHuman IGF-1 sR, (IGF-1 sR), CF (R&D …). The description is as above.

T2 sequence (P08581 25-932, change not shown): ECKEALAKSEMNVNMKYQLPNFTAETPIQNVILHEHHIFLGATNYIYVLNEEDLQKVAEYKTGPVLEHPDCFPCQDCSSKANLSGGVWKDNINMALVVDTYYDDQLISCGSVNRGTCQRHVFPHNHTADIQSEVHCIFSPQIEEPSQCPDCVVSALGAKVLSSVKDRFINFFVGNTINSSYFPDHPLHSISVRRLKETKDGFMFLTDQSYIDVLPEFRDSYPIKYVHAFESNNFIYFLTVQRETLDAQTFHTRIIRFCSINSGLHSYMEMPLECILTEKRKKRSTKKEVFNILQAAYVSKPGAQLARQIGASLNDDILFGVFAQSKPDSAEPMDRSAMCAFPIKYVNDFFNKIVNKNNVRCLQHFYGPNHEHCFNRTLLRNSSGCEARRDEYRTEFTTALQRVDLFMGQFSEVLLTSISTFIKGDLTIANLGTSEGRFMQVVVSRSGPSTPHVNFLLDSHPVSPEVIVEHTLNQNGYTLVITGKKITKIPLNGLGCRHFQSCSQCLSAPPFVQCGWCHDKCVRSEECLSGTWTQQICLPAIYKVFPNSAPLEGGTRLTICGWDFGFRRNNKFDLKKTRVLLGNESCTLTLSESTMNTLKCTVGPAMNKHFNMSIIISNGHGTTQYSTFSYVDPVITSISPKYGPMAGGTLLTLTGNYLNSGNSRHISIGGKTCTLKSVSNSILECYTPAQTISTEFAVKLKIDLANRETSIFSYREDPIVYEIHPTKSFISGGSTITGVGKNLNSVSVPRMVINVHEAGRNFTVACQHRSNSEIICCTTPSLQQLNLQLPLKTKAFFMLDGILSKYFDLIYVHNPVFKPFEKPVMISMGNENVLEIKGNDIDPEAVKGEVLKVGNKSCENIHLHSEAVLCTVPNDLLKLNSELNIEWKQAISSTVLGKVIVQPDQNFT

B1: Fab VH1-46_IGHD7-27*01_IGHJ2*01 & A27_IGKJ1*01 (Fab, V domains shown)
VH: QVQLVQSGAEVKKPGASVKVSCKASGYTFTSYYMHWVRQAPGQGLEWMGIINPSGGSTSYAQKFQGRVTMTRDTSTSTVYMELSSLRSEDTAVYYCARANWGYWYFDLWGRGTLVTVSS
VL: not shown
notes: Fab; expressed in E. coli from Plasmid A (CH1, His6 and Flag tags) and Plasmid C (kappa CL)
In the case of B1, in experiment [1], the binding result is reported as “binds”.

B2: Fab VH1-46_IGHD6-6*01_IGHJ1*01 S102A/S103P/S104F (APF) & L6_IGKJ1*01 (Fab, V domains shown)
VH: QVQLVQSGAEVKKPGASVKVSCKASGYTFTSYYMHWVRQAPGQGLEWMGIINPSGGSTSYAQKFQGRVTMTRDTSTSTVYMELSSLRSEDTAVYYCAREEYAPFSAEYFQHWGQGTLVTVSS
VL: not shown
notes: Tested as Fab made in E. coli; The heavy chain was cloned in Plasmid A (CH1 constant region, His6 and Flag tags); The kappa light chain was cloned in Plasmid C (kappa CL); also called APF triple mutant; H:APF & L:wt
In the case of B2, the ECL signal in [2] is 171; in experiment [3], 256; in experiment [4], 285; in experiment [5] it was 216; in experiment [6], 130; in experiment [7], 236. Further, the ECL signal in experiment [8] was found to be 340; in experiment [9], 174; in [10], 306; in [11] it was 297; in experiment [12], 304; in [13], 272. Besides, the ECL signal in [14] stood at 257; in experiment [15], 189; in [16], 330; in [17] it was 241; in experiment [18], 272; in experiment [19], 208. Further, the ECL signal came out at 329 in experiment [20]; 237 in experiment [21]; 334 in experiment [22]; 96 in experiment [23]; 157 in [24]; 197 in [25].

B3: Fab VH1-46_IGHD6-6*01_IGHJ1*01 S102A/S103P/S104F G55D & L6_IGKJ1*01 (Fab, V domains shown)
VH: QVQLVQSGAEVKKPGASVKVSCKASGYTFTSYYMHWVRQAPGQGLEWMGIINPSDGSTSYAQKFQGRVTMTRDTSTSTVYMELSSLRSEDTAVYYCAREEYAPFSAEYFQHWGQGTLVTVSS
VL: not shown
notes: Tested as Fab (CH1 with His6 and Flag tags, kappa CL); also called APF G55D
In the case of B3, the ECL signal in experiment [26] was determined as 268; in [27], 243; in [28] it was 329; in experiment [29], 272; in [30], 302; in experiment [31], 173. For the same molecule, the results for the ECL signal in [32] and in [33] were 302 and 191, respectively.
